From a protein production outcome set (Wang et al. 2014)

Assay: label from the status in PepcDB records
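Also: failed if final PepcDB status was selected cloned or expressed and not failed if soluble or beyond.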

Sequence	protein production
MSNEDNVRQETKNKKEKLRLSFPETRFMKFMGGKDLLFALIMLILIGIAIFIFDQVSYIFKPFIIVFNTIVAPIIVSIILYYLFNPLVNLMERYNISRLWGVIILFLVIIGVIALAINLLIPVIGTQFKSFGNNFPHYVDKVNQFIDNLTRNSLISNFYGQIQEQLDALANKLPSMVSDYFNGFGSKVKNFAEAIVNVGVVIATTPFVLFFMLKDSHHFKEYSTKLMPPKFRKDYHDLLDKMSVQVGSYIQGQIIVSFCIGILLFIGYSIIGLDYSLILASIAAVTSVVPYLGPTIAISPAIIIALITSPIMLLKLIIVWTAVQFIEGHFISPNIMGKTLKIHPLTIIFILLSAGNLLGVVGVILGIPAYAILKVLVSHLYSMYKRRYNKYYGDDAGEYEITNDEQIR	failed
MSNFFSVRIETLGCRLNQVESEALAVRFAECGFDVFSKEAETSILPVKLCIVNTCTVTGKAEQKARRLIRLLLKEHEESVILVTGCYAELEADSIEKINKRIIAFSGKKKDELDGLPQFLKDSCLKNKDLKEDTVNLKKNLLIFRNEIYAKEDQQDKSFLLKETERRKSMFKLSSPVFVFHSRASLKIQDGCNNACAYCRIRLARGTSVSLPAEEAVRRIVQIEKNGAAEVVLSGVNLSQYRDETYGGFANLLAKLLENTKKIRLRISSMYPECVDDGILEIVANKRICPHFHLSIQSGSDKILKAMNRPYREADIRMAINNLRKAKDNPFIGCDIITGFPSETEEDFLQTFKMCEDLKIPGIHVFPFSARPGTKAFSMRPKVPEREAGRRASLLSELSGKNYQSYLASCNGKLFFGVIEKPQNNEDLRIVTENYLSLPLVVNKKAENYKGGEGLFVVIKDGNAYLAD	failed
MSNFSEGEIFIANIEKKSLECRENDEIVVLKICELCNIIYPIFNKIFGNGFVGDTLKKDLKNSSSQVQRAIEKFPEETKYVSMLYSYNINKYENMEKLKRDLDNGIISFLWMKRTLEFIITFLEKCYITCSETKLSICAQEAYNEVLKKYHGFITSKIVKLCLKLSPTKDILTKKLGFQTHQQASTVLQKCLSITKPLVRDISVTIEKFNCDFEEKI	failed
MSNKIITLEINLEPSDNHRLASLCGPFDDNIKHLERRLGVEINYRGNFFTIVGQPHTAAAALDIIKTLYVETAPVRGQITDIEPEQIHLAIKESGVLEQHSESSIAHGKEVFVKTKKGVIKPRTPNQAQYLMNMVTHDITFGVGPAGTGKTYLAVAAAVDALERQEIRRILLTRPAVEAGEKLGFLPGDLSQKVDPYLRPLYDALFEMLGFERVEKLIERNVIEVAPLAYMRGRTLNDAFIILDESQNTTVEQMKMFLTRIGFNSRAVITGDVTQIDLPRGAKSGLRHAIEVLNEVDEISFNFFQADDVVRHPVVARIVNAYEKWEAQDQKERKEYEQRRREERENKLLEMQRAEMTLSHNNESNPS	failed
MSNMQLDTLRRIVQEINSSVSLHDSLDIMVNQVADAMKVDVCSIYLLDERNQRYLLMASKGLNPESVGHVSLQLSEGLVGLVGQREEIVNLENASKHERFAYLPETGEEIYNSFLGVPVMYRRKVMGVLVVQNKQPQDFSEAAESFLVTLCAQLSGVIAHAHAVGNID	not failed
MSNNGSSPLVLWYNQLGMKDVDRVGGKNASLGEMITNLSGMGVSVPNGFATTADAFNQFLDQSGVNQRIYELLDKTDIDDVTQLAKAGAQIRQWIIDTPFQPELENAIREAYAQLSADDENASFAVRSSATAEDMPDASFAGQQETFLNVQGFDAVLVAVKHVFASLFNDRAISYRVHQGYDHRGVALSAGVQRMVRSDLASSGVMFSIDTESGFDQVVFITSAWGLGEMVVQGAVNPDEFYVHKPTLAANRPAIVRRTMGSKKIRMVYAPTQEHGKQVKIEDVPQEQRDIFSLTNEEVQELAKQAVQIEKHYGHPMDIEWAKDGHTGKLFIVQARPETVRSRGQVMERYTLHSQGKIIAEGRAIGHRIGAGPVKVIHDISEMNRIEPGDVLVTDMTDPDWEPIMKKASAIVTNRGGRTCHAAIIARELGIPAVVGCGDATERMKDGENVTVSCAEGDTGYVYAELLEFSVKSSSVETMPDLPLKVMMNVGNPDRAFDFACLPNEGVGLARLEFIINRMIGVHPRALLEFDDQEPQLQNEIREMMKGFDSPREFYVGRLTEGIATLGAAFYPKRVIVRLSDFKSNEYANLVGGERYEPDEENPMLGFRGAGRYVSDSFRDCFALECEAVKRVRNDMGLTNVEIMIPFVRTVDQAKAVVEELARQGLKRGENGLKIIMMCEIPSNALLAEQFLEYFDGFSIGSNDMTQLALGLDRDSGVVSELFDERNDAVKALLSMAIRAAKKQGKYVGICGQGPSDHEDFAAWLMEEGIDSLSLNPDTVVQTWLSLAELKK	failed
MSNNNKYFTITKKQYKKMRRNKIELLFNVKVLKKKNGRQKFKILHEVENKPKIPIKIIEDQPESPKPLKPPKPPKPPKGPDNPEEPDSPEEPKETDQPGGPDNPNAGNKKMPTPEEYVTRKEFNEFKDSNNQRLTKIENKVDKLEVKVDKLAEIVQTQGEEIKELKVEQKAQSETLQLILKTLQKMNDRLDRMETRLDKIDSPKLEHHHHHH	not failed
MSNNQQMMLNRIKVVLAEKQRTNRWLAEQMGKSENTISRWCSNKSQPSLDMLVKVAELLNVDPRQLINGKIKI	not failed
MSNPNEDSPMILQRIFALALLAMCAALAVMAWPYQAAFSYEPVGPRAYPLLVLGLMGLGLLYLVFRPTPIVRKDDEPELDRETLIKITACVGLLIVFAATFEALGFILSAILVGLPMARLYGGRWLQSAIVVAGMSIFLYWLFDRVMDVPLPLGLLSVLEN	failed
MSNQYDPSQPVVFTDFSPKEGGMRTRLYIEGSNFGNDPTKIHITIGGEKTKTIGADGKKIYCMVPSKAFDGIINVRVDGPDGKPIAEHTFEEEFKYTPATIVGTLLRKVDEDNNSAFQEGSFDEGASIPSNDCMVFDPKYKDGDNRLLFSSNHSDGLHLIDLTERTVKRLFPRTGYSTMYSFTFSADGDTLLFTDDHGQDNTTRANIYYSLRRENFRRIRPYNYGRTAYSLVYMDDGTIFYTTWWEGKVYKMIRNGAIPNIDENAEVAFSLSQISAVGGSHTILFRHPSNKFMYMLSDNFGAVFRADYDPVAKTFGNPSIIAGNMNDKSFKEGTGGSARFNKPQFGVFVKNEKYGEGIGPDNDQYDFYFCDRENHCIWKLDPHGVASLAAGRSNENADGKIWGYVDGNPLHEARFNQPAGLAYDPDTDMFYIGDIDNKGIRYMTTELEHHHHHH	failed
MSNSHPLRPFTAVGEIDHVHILSEHIGALLIGEEYGDVTFVVEKKRFPAHRVILAARCQYFRALLYGGMRESQPEAEIPLQDTTAEAFTMLLRYIYTGRATLTDEKEEVLLDFLSLAHKYGFPELEDSTSEYLCTILNIQNVCMTFDVASLYSLPKLTCMCCMFMDRNAQEVLASDGFLSLSKTALLNIVLRDSFAAPEKDIFLALLNWCKHNAKENHAEIMQAVRLPLMSLTELLNVVRPSGLLSPDAILDAIKVRSESRDMDLNYRGMLIPEENIATMKYGAQVVKGELKSALLDGDTQNYDLDHGFSRHPIDDDCRSGIEIKLGQPSIINHIRLLLWDRDSRSYSYFIEVSMDELDWIRVIDHSHYLCRSWQKLYFPARVCRYIRIVGTHNTVNKIFHIVAFECMFTNKAFTLEKGLIAPMENVATIADCASVIEGVSRSRNALLNGDTKNYDWDSGYTCHQLGSGAIVVQLAQPYMIGSIRLLLWDCDDRSYSYYVEVSTNQQQWTMVADRTKVSCKSWQSVTFERQPASFIRIVGTHNTANEVFHCVHFECPEQQSTQKEDSSEEPGTGDLSTPSQQLDPHAPRAPSASSLPPSPGPNLHSPNQQNQ	failed
MSNSIFHKIIKSVKGLKLKTDPNLPGAKQKTPLNIKRFYLLIILVIYTATSACIYFDWSAIRKLLLHVGKYKHLNVDEYSDMTLSPQYKRINGLYPLTLAVHFTTSVFCGFLYDHIGPKFTAIIGQLFNIICWILLSIDIKGVDTTLWGFIFLGLGADTAFIPVLTVSNLYPDASTFILTVIGAAASLSYAVPATLNLVLKYFPNLSFSYVCYGYIILILIPCLLTAAFLLPLKPFKALDYYLEKNNETTKHTNAEGRSRSSNNIYTNEEDEFHFKNNASGMVDKDSTENNMNTDEHNYYNNGNISSNDLENNIQTNNRNNNKNNNYNNNNNNNNIIKKNTKISDQSTVKKDKSIDSNKNILHDEEDFHKKSIFLFFKILISYPSVCVITYFILFNISTVFYGMVTDTYFSYDRSIINVINILMPLSSIPCVVFGRFINKYGASVIILTINTLSVLMHLCALIKFRFAGLCSAFLYMCVTSVYTSQIYCFIQNSFPSIVFGKLLGFASLCGGIFSLLCEKLYDLIIIKDSSSIDPTNISLLIVIAFIIMFLPLSILYVRKYERSIENFGEKDKLPMN	failed
MSNSINLGRVAVIDIGKTNAKVVVIDTGSGEEIAAEKRTNPVLRDGPYPHYDVEMLWNFILAALQRFGHEPGFDAISITTHGASAALLDGTGDLAMPVLDYEHIYAEPVQQAYRGIRPDFAETGSPQLPAGLNLGAQIHFQKTNFPDDFARVRSIVTYPQYWAGRLTGVQATETTSLGCHTDLWNPRRKSFSSLVGRLGIEHLMAPVRSAFDVLGTIRPSLAQETGLSPDMPVYCGIHDSNASLLPHLLRREGDFSVVSTGTWVVNFAIGGKADALDPARDTLLNVDALGRPVPSSRFMGGREYEMLAQQFGAATPHDIEAALGGVIEKGMMLLPSVVSGSGPFPQSASRWIADSDATGAERHAAASLYLALMTEFCLSLVERRGPIVVEGPFAGNALYLKALAAFAATDVIAMEGSTGTSAGAALLTGIKPVAGRERHFTAEDIAGLTSYRTAWQNHLT	failed
MSNSQAGPGASVRRVLAVIPARGGSKGVPAKNLAPVGGVPLVVRAVRECLAARLVTDVVVSTDDQAIAAAAREAGAEVVLRPAAIAGDTATSEAAVLHAMDAHEALHGAAVDVVLLVQCTSPFLVREDVDGVAGAVVEDGADTAVTVAPFHGFVWRDGADEPGGADGGHGVNHDKAYRPRRQDRPQDLLETGAAYAMAAPGFRKHRHRFFGRTDLVRTDPARVLEIDDPHDLARARALAPHFDTARPGALPTAADIDAVVLDFDGTQTDDRVLIDTDGREFVSVHRGDGLGIAALRRSGLTMLILSTEVNPVVAARARKLKLPVLHGIDRKDLALKQWCEEQGIAPERVLYVGNDVNDLPCFALVGWPVAVASAHDAVRGAARAVTTVPGGEGAVREIAAWLLGPSLDALGPASETTPTLTQSKLEHHHHHH	not failed
MSNVAQYKDGTYIGKAQGKAAEVEVTVSIKEGKIANAEVLKHGDTEAMMLSATDQIVPELIEKQDINKVDAVTGATLSSQGVINAVKQALEQAKVTPLEHHHHHH	not failed
MSNVCIVYSSTHHGNTEKVLNKIKEKFPETVLIKAGDFNPDDFNRYEAIGFASGIFYFKFAKPVDKLFEQALVGSVQKLFFIYTAGAVNAGFEKTLRKKTEQSGKICMGIFGCKGFDTFGPLKLIGGLNKNSPNEKDFKNAIDFFEKNIINALEHHHHHH	not failed
MSNYPLHQACMENEFFKVQELLHSKPSLLLQKDQDGRIPLHWSVSFQAHEITSFLLSKMENVNLDDYPDDSGWTPFHIACSVGNLEVVKSLYDRPLKPDLNKITNQGVTCLHLAVGKKWFEVSQFLIENGASVRIKDKFNQIPLHRAASVGSLKLIELLCGLGKSAVNWQDKQGWTPLFHALAEGHGDAAVLLVEKYGAEYDLVDNKGAKAEDVALNEQVKKFFLNNV	not failed
MSNYTESLQYLDSYISARVPVIGMRTIEQQRALRLLREAATQPRRSSMPFWIYTRATGLRDLRTNAPVQDDRSLTGAMDFAAAQFTSRANATVVFVDPDDLGGDTPITRHIAELARLADSNMGSIVLITDTPIWSGLQRLGMSLHLDLPDADEMYGILSGFLGDHHGHIPIEWDEADGRRAAEFLLGVTEAECINLMATIAAKGSIQKADVLGLAQAKDRIFSDLTGLERVQLKEADYTVGGLSSLREWLQRKHWQLHEDLRDSALRPPRGVLLVGVPGCGKSLSAKAIAHEWQLPLYRLDMGAIHGKYLGESEGRFREALAMADRVAPCVLWIDEIEKGLAGRDDGSGVPQRIIGQFLFWLQESQSRAFVVATANDIRSLPPELLRKGRFDELFFVDLPDAQDRKEIIELYYQRYLQGEPDRDQVDQLVDLSEGFAGSDIESALHDVGLEARRIGGADGLKASFLRDTFANTVPMSRVNPEQIEEIRAWGRERALPAGRSTVSAAPGGAKPSRRIVFMDD	failed
